US20080026996A1, “Selective Vpac2 Receptor Reptide Agonists” (ELI LILLY AND COMPANY, priority 2004, published 2008)
Where no end group is shown, it is not given here. [ ]: non-standard residue; d: D form. The star is where a group is joined. Hexanoyl = CCCCCC(=O)*; Aib = CC(C)(N)C(=O)O

Molecular target: T1, rat VPAC2 receptor (rat, UniProt P35000 23-437)
T1 construct: whole, on cells; transfected CHO-PO cells in DiscoveRx
T1 sequence (looked up): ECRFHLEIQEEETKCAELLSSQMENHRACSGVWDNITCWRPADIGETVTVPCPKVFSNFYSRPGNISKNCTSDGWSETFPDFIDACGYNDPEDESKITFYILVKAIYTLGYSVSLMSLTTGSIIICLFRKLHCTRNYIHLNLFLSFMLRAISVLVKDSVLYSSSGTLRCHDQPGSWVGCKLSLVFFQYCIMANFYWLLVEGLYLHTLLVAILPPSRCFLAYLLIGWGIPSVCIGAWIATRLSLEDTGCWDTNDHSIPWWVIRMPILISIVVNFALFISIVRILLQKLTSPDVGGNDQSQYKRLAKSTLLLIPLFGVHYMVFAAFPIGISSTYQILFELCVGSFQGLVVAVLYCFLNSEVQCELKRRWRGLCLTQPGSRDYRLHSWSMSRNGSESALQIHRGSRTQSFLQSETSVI
Assay: IC50 on rat VPAC1 over IC50 on rat VPAC2
Description: Each assay is done in duplicate and performed on two different membrane preparations.
TABLE 3 Binding data are expressed as the IC₅₀ values of tracer inhibition. A different reference compound is used as the tracer for the VPAC1 receptor and for the VPAC2 receptor. The last column represents the ratio between the IC₅₀ values on VPAC1 and VPAC2 receptor and is, thus, an index of selectivity for a receptor subtype. […] The values are given with the standard error.

| Binder | VPAC1/VPAC2 (ratio of IC50 values) |
| --- | --- |
| Hexanoyl-HSDAVFTDNYTRLRKQVAAKKYLQSIKNKRYGGPSSGAPPPS (also called VPAC2-P31) [P31] | 546 |
| Hexanoyl-HSDAVFTDNYTRLR[Aib]QVAA[Aib]KYLQSIKNKRYGGPSSGAPPPS (ends and bridges not checked) [P261] | 363 |
| Hexanoyl-HSDAVFTDNYTRLR[Aib]QLAA[Aib]KYLQSIKNKGGPSSGAPPPS (ends and bridges not checked) [P292] | 269 |
| MHSDAVFTDNYTRLRKQVAAKKYLQSIKNKRYGGPSSGAPPPS (N-terminal methionine added (M-), also called VPAC2-P104) [P104] | 977 |
| Hexanoyl-HSDAVFTDNYTRLLAKLALQKYLQSIKNKRYGGPSSGAPPPS (also called VPAC2-P119) [P119] | 47 |

Molecular target: T2, human PAC1 receptor (human, UniProt P41586 21-468)
T2 sequence (looked up): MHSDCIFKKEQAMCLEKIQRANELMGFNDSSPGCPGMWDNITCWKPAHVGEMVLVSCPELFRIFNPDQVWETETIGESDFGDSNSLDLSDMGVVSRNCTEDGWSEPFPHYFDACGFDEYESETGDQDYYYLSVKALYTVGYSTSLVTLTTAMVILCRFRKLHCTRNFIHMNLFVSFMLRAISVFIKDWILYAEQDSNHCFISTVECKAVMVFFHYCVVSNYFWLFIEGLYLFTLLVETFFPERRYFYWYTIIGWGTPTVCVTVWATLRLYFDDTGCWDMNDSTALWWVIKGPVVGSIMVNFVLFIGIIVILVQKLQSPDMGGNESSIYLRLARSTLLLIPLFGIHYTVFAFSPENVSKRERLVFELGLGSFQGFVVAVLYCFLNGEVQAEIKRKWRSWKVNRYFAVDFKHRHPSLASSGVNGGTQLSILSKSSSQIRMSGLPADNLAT
Assay: cell-based or functional assay

| Binder | EC50 cAMP, DiscoveRx [nM] |
| --- | --- |
| Hexanoyl-HSDAVFTDNYTRLRKQVAAKKYLQSIKNKRYGGPSSGAPPPS (also called VPAC2-P31) [P31] | 116 |

Molecular target: T3, human VPAC1 receptor (human, UniProt P32241 31-457)
T3 sequence (looked up): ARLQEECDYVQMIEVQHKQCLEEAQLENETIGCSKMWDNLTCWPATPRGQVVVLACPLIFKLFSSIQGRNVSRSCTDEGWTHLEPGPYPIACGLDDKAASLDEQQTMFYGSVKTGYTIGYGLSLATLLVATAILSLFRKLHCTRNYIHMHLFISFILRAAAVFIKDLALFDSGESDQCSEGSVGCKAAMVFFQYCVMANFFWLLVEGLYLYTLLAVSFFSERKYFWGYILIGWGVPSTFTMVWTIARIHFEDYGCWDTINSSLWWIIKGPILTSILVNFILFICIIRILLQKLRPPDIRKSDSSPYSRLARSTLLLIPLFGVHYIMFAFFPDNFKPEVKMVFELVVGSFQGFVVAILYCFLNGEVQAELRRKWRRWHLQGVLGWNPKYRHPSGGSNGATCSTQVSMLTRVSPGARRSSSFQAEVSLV
Assay: cell-based or functional assay

| Binder | EC50 cAMP, DiscoveRx [nM] |
| --- | --- |
| Hexanoyl-HSDAVFTDNYTRLRKQVAAKKYLQSIKNKRYGGPSSGAPPPS (also called VPAC2-P31) [P31] | 6 |

Molecular target: T4, human VPAC2 receptor (human, UniProt P41587 24-438)
T4 sequence (looked up): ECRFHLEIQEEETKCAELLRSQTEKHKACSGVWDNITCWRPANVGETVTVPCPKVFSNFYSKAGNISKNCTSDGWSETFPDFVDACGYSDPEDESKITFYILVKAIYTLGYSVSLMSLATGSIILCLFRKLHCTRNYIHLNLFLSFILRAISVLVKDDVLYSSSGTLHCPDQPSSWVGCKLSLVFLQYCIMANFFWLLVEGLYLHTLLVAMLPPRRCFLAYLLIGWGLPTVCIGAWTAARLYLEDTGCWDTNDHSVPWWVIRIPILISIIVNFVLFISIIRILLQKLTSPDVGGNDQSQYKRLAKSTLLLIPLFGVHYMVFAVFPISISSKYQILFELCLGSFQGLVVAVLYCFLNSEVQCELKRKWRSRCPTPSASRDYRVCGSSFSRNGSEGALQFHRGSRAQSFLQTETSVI
Assay: cell-based or functional assay

| Binder | EC50 cAMP, Alpha Screen [nM] | EC50 cAMP, DiscoveRx [nM] |
| --- | --- | --- |
| Hexanoyl-HSDAVFTDNYTRLRKQVAAKKYLQSIKNKRYGGPSSGAPPPS (also called VPAC2-P31) [P31] | 0.13 | 0.11 |
| Hexanoyl-HSDAVFTDNYTRLR[Aib]QVAA[Aib]KYLQSIKNKRYGGPSSGAPPPS (ends and bridges not checked) [P261] | 0.09 | – |
| Hexanoyl-HSDAVFTDNYTRLR[Aib]QLAA[Aib]KYLQSIKNKGGPSSGAPPPS (ends and bridges not checked) [P292] | 0.23 | – |
| MHSDAVFTDNYTRLRKQVAAKKYLQSIKNKRYGGPSSGAPPPS (N-terminal methionine added (M-), also called VPAC2-P104) [P104] | 0.27 | – |
| Hexanoyl-HSDAVFTDNYTRLLAKLALQKYLQSIKNKRYGGPSSGAPPPS (also called VPAC2-P119) [P119] | 0.42 | 0.34 |

Molecular target: T5, rat PAC1 receptor (rat, UniProt P32215 20-523)
T5 sequence (looked up): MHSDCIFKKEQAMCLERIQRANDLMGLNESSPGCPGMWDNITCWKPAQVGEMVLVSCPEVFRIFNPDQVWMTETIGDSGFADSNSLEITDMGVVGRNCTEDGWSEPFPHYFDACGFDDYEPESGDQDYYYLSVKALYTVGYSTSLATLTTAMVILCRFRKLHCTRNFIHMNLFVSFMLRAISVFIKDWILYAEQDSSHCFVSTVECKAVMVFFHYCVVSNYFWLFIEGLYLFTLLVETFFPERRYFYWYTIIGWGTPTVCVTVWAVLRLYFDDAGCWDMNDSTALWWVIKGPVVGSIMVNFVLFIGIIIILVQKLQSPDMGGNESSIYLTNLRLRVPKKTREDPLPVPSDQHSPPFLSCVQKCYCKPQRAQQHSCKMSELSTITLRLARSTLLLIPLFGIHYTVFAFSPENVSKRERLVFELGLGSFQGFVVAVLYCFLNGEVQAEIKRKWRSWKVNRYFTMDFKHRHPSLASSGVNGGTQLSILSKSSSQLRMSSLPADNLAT
Assay: cell-based or functional assay

| Binder | adenylate cyclase potency ratio compared to PACAP-27 [fold] |
| --- | --- |
| Hexanoyl-HSDAVFTDNYTRLRKQVAAKKYLQSIKNKRYGGPSSGAPPPS (also called VPAC2-P31) [P31] | > 200 |
| MHSDAVFTDNYTRLRKQVAAKKYLQSIKNKRYGGPSSGAPPPS (N-terminal methionine added (M-), also called VPAC2-P104) [P104] | > 1000 |
| Hexanoyl-HSDAVFTDNYTRLLAKLALQKYLQSIKNKRYGGPSSGAPPPS (also called VPAC2-P119) [P119] | > 200 |

Molecular target: T6, rat VPAC1 receptor (rat, UniProt P30083 31-459)
T6 sequence (looked up): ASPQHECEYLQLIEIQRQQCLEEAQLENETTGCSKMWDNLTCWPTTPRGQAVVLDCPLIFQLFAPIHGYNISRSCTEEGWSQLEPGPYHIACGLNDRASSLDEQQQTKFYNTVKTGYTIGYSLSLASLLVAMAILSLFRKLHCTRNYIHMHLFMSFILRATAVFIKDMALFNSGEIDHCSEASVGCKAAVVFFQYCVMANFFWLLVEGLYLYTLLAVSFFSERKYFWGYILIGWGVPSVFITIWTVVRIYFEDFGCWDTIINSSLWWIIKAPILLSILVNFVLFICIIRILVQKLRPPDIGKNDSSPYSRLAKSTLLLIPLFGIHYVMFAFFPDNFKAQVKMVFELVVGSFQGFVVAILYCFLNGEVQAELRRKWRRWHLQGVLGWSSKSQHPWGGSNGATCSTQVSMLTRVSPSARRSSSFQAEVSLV
Assay: cell-based or functional assay

| Binder | cAMP max |
| --- | --- |
| Hexanoyl-HSDAVFTDNYTRLRKQVAAKKYLQSIKNKRYGGPSSGAPPPS (also called VPAC2-P31) [P31] | 200 |
| Hexanoyl-HSDAVFTDNYTRLR[Aib]QVAA[Aib]KYLQSIKNKRYGGPSSGAPPPS (ends and bridges not checked) [P261] | 126 |
| Hexanoyl-HSDAVFTDNYTRLR[Aib]QLAA[Aib]KYLQSIKNKGGPSSGAPPPS (ends and bridges not checked) [P292] | 124 |
| MHSDAVFTDNYTRLRKQVAAKKYLQSIKNKRYGGPSSGAPPPS (N-terminal methionine added (M-), also called VPAC2-P104) [P104] | 195 |
| Hexanoyl-HSDAVFTDNYTRLLAKLALQKYLQSIKNKRYGGPSSGAPPPS (also called VPAC2-P119) [P119] | 207 |

Molecular target: T1, rat VPAC2 receptor
Assay: cell-based or functional assay

| Binder | VPAC1/VPAC2 (EC50 ratio) | cAMP max |
| --- | --- | --- |
| Hexanoyl-HSDAVFTDNYTRLRKQVAAKKYLQSIKNKRYGGPSSGAPPPS (also called VPAC2-P31) [P31] | 174 | 134 |
| Hexanoyl-HSDAVFTDNYTRLR[Aib]QVAA[Aib]KYLQSIKNKRYGGPSSGAPPPS (ends and bridges not checked) [P261] | 200 | 78.5 |
| Hexanoyl-HSDAVFTDNYTRLR[Aib]QLAA[Aib]KYLQSIKNKGGPSSGAPPPS (ends and bridges not checked) [P292] | 100 | 79.1 |
| MHSDAVFTDNYTRLRKQVAAKKYLQSIKNKRYGGPSSGAPPPS (N-terminal methionine added (M-), also called VPAC2-P104) [P104] | 184 | 129 |
| Hexanoyl-HSDAVFTDNYTRLLAKLALQKYLQSIKNKRYGGPSSGAPPPS (also called VPAC2-P119) [P119] | 32 | 133 |

Molecular target: T6, rat VPAC1 receptor
Assay: cell-based or functional assay
Remark: another data set of the same source

| Binder | EC50 cAMP, DiscoveRx [nM] |
| --- | --- |
| Hexanoyl-HSDAVFTDNYTRLRKQVAAKKYLQSIKNKRYGGPSSGAPPPS (also called VPAC2-P31) [P31] | 0.44 |
| Hexanoyl-HSDAVFTDNYTRLR[Aib]QVAA[Aib]KYLQSIKNKRYGGPSSGAPPPS (ends and bridges not checked) [P261] | 0.35 |
| Hexanoyl-HSDAVFTDNYTRLR[Aib]QLAA[Aib]KYLQSIKNKGGPSSGAPPPS (ends and bridges not checked) [P292] | 1.91 |
| MHSDAVFTDNYTRLRKQVAAKKYLQSIKNKRYGGPSSGAPPPS (N-terminal methionine added (M-), also called VPAC2-P104) [P104] | 6.75 |
| Hexanoyl-HSDAVFTDNYTRLLAKLALQKYLQSIKNKRYGGPSSGAPPPS (also called VPAC2-P119) [P119] | 0.07 |

Molecular target: T1, rat VPAC2 receptor
Assay: cell-based or functional assay
Remark: another data set of the same source

| Binder | EC50 cAMP, DiscoveRx [nM] |
| --- | --- |
| Hexanoyl-HSDAVFTDNYTRLR[Aib]QVAA[Aib]KYLQSIKNKRYGGPSSGAPPPS (ends and bridges not checked) [P261] | 0.04 |
| Hexanoyl-HSDAVFTDNYTRLR[Aib]QLAA[Aib]KYLQSIKNKGGPSSGAPPPS (ends and bridges not checked) [P292] | 0.07 |
| MHSDAVFTDNYTRLRKQVAAKKYLQSIKNKRYGGPSSGAPPPS (N-terminal methionine added (M-), also called VPAC2-P104) [P104] | 0.51 |

Molecular target: T7, human VPAC2 receptor (human), P41587
T7 chain: T4 sequence (looked up)
Assay: cell-based or functional assay

| Binder | EC50 cAMP, Alpha Screen [nM] |
| --- | --- |
| HSDAVFTDNYTRLRKQVAAKRYLQSIRNGGPSSGAPPPS (modifications not checked) [P213] | 0.24 |
| HSDAVFTDNYTRLRKQVAARRYLQSIRNGGPSSGAPPPS (modifications not checked) [P214] | 0.16 |
